Assay: soluble on expression in E. coli; label from the status in PepcDB or PDB records

Row | Sequence | soluble on expression in E. coli
1 | MGSDKIHHHHHHMMTQLSAPTLTKDPLTSQDRQIIATIVNQSDYSKECKPEDVVTIWINSDDIVWVKMTHGYARYHKQSFKRAVAEVKASLSAPVERNHKEEKELKQASEKIGLLGDCDWLSLSVQYHSDKVTGHAACYISHKARILTPLAEWDFTIPKWNMPAAICPDCDGHGCGNCGYRGTRAEDLCTPVDGYRLTYVGKTDIQTAHNVYLDGVFLGILFKVRNPDEIWENDPKTYYWQGSNGMKYWSLKEAVESFTQDVVTNKVPQVRQELAVA | not soluble
2 | MKLQKQLLEAVEHKQLRPLDVQFALTVAGDEHPAVTLAAALLSHDAGEGHVCLPLSRLENNEASHPLLATCVSEIGELQNWEECLLASQAVSRGDEPTPMILCGDRLYLNRMWCNERTVARFFNEVNHAIEVDEALLAQTLDKLFPVSDEINWQKVAAAVALTRRISVISGGPGTGKTTTVAKLLAALIQMADGERCRIRLAAPTGKAAARLTESLGKALRQLPLTDEQKKRIPEDASTLHRLLGAQPGSQRLRHHAGNPLHLDVLVVDEASMIDLPMMSRLIDALPDHARVIFLGDRDQLASVEAGAVLGDICAYANAGFTAERARQLSRLTGTHVPAGTGTEAASLRDSLCLLQKSYRFGSDSGIGQLAAAINRGDKTAVKTVFQQDFTDIEKRLLQSGEDYIAMLEEALAGYGRYLDLLQARAEPDLIIQAFNEYQLLCALREGPFGVAGLNERIEQFMQQKRKIHRHPHSRWYEGRPVMIARNDSALGLFNGDIGIALDRGQGTRVWFAMPDGNIKSVQPSRLPEHETTWAMTVHKSQGSEFDHAALILPSQRTPVVTRELVYTAVTRARRRLSLYADERILSAAIATRTERRSGLAALFSSRE | soluble
3 | MAHHHHHHMGTLEAQTQGPGSMLYIIGLGLYDEKDITVRGLEAVKSCDLVFLEHYTAILQCDVAKLEEFYGKKVIIGDRDLVETEADQILEPAKTKNVALLVVGDVYGATTHSDIFVRCQKMGIEVKVIHNASIMNAIGCSGLQLYRFGQTVSVCFWSEHWRPSSYYPKIKINRDNNMHTLVLLDIKVKERSEESIIKGRDIFEPPRYMTINQCIEQLLEVEKEQHLGVYDEDTMVVGMARVACADQKIVYGKMKDLLHYDFGAPMHCLLIPAPQVDDPELDQLEYFKYKPE | soluble
4 | MGLDDALIFTRVVEYHSFTQAAQSLGMQKSTVSRRIALLEERLGVRLLNRTTRKLRLTEVGQAYYERCRQIMHDFAEAEQAVMQLQQAPSGLLRITSPIEFGQMFLASLLGDFMRQYPQITAEVELASRSVDPLQEGVDIVIMVGQPEDSTLVARRLLSTSRWLCASPDYLAAHGTPTSVAELAGHRAVLLSTDSQRYWPLSGDSLPCQRVLSCNNITFAREAVVAGAGIAALPALICAESVHSGRLVRLLADVPLPVGELYAVYPSRRFQAMKVKAFLDFLISRLPADTGRLLEPEAARLITSRP | not soluble
5 | MEIATRLKMNVKEQTEVILTNFTKMLFRRKLIKDQQSLLNKLKNIDTKDIYHFKENDMNFLLIITFQKLNGIKKGSEIEEQLIKSKGYNFIIASQSSNKTYQQVKNFKGELFLTLEFLSDIPSLPFVPEHILLSEKEKEEILSVYKEKNIAKIFVTDMMARYLGAKKGDLIKIIRKTLNTGESIYYRRVF | not soluble
6 | MLLWVFEYNSVSRASWGDRVPVDKNSCACLEGGYAACLCGVAKSVKGRPVLRGVSLSVKFGEIHVLAGLNGAGKTTSLRVLVGLLSRDSGEARVLGVDPWGGGFERVKGEVGYLPEDASVYERLTGMENILFYARLYSGWRDVEELVENAVFYSGLSREDLARRAGGYSKGMKRRLLLGITLMSKPRLVVLDEPTSGVDPIASNRIKKILRGLSREGRAILVTTHDLALAEEIADRVTIIHGGSTVASGPPYRLVEEYCGETLEDAFVNIVTGGGC | soluble
7 | RESITDSRMAYRTISPFLTDLPQEEMWVLLLNQSGKIISMENLSRGGVSETSADVRLIMHKAVSHLASAIILAHNHPSGTVRPSEQDIQLTQRVQKAATLLGFRLNDHLIIGDDGAYFSFADEGLL | not soluble
8 | KCETKEKGAITAKELYTMMTDKNISLIIMDARRMQDYQDSCILHSLSVPEEAISPGVTASWIEAHLPDDSKDTWKKRGNVEYVVLLDWFSSAKDLQIGTTLRSLKDALFKWESKTVLRNEPLVLEGGYENWLLCYPQYTTNAKV | soluble
9 | MGSDKIHHHHHHMAGVTKLTIAGFKSIRELRDFELRNLNVLIGANGAGKSNFIGFFKLLAEMYERRLQLFVQQQGGSDTLLHFSRKLTDKIEGELNFGTDYDHYRFELVVTNDNRLIFTNEQYWLHSRGSRPGEVGLLGGNKDESDLKKLAAQQKSPLIDDILNSTRVYHFHDTGEKAKVKQPHALNDTLRLKVDGANLAAYLRMLKTEHAESYRQIVDTIRLVAPFFDDFVFRADSASKIQLEWTERGDPDTPFTAHALSDGTLRFICLGTLLLQPWELMPATILIDEPELGLHPYAINLLADLLKRASEQKQLIVSTQSVELLDRLEPEDVIVVDRKDNASTFHRLDAVQLQDWLDDYSLGDLWKQNVLGGRPA | not soluble
10 | GSPLPAAGFKKQQRKFQYGNYCKYYGYRNPSCEDGRLRVLKPEWFRGRDVLDLGCNVGHLTLSIACKWGPSRMVGLDIDSRLIHSARQNIRHYLSEELRLPPQTLEGDPGAEGEEGTTTVRKRSCFPASLTASRGPIAAPQVPLDGADTSVFPNNVVFVTGNYVLDRDDLVEAQTPEYDVVLCLSLTKWVHLNWGDEGLKRMFRRIYRHLRPGGILVLEPQPWSSYGKRKTLTETIYKNYYRIQLKPEQFSSYLTSPDVGFSSYELVATPHNTSKGFQRPVYLFHKARSPSH | soluble
11 | MIDMALTDDIILLGQVPLFAGFSDDQLRLIAFGAERRRVSAGQILFREHSPAECAFAVTSGHFELFTAGRDGKPLLQATPGKGALLSELALFTLCERKFTAVAVEDSEVIRITRILFHRLVEEFPEVADIVSARIRDNIAALAAGAARLQNRFV | not soluble
12 | MNIKFKPVEPADRSAITTITFSSVARICDLAFSNLYCWSFVYGTSWAIVEGCLIIRFKPKSRSHPVYLFPVGADPEQVVAAAHRLKAEVVHEDYPLIFMGVTPDIHRCIEEHCSAEYYFIEDEAYCDYIYERESLATLSGKKLQAKRNHINKFVSLYPDYTYDPVKDSDAEECLMLAHLWLDSRGDQDGRELEVEMVERAFRHRQELGLSGGVLRVGGRVVAFCLGSPINTDTFGVHIEKADAMVEGAFAMINREFARSIPDTFRYINREEDLGLPGLRQAKLSYRPAILLPKQTAILRRDHDRIQA | not soluble
13 | MAKPLMAKATAVWLVDNTTISFKQIADFVGMHELEIQGIADGDVAAGVKGFDPIANNQLTQEEIDKAEQNPLHKLKLKFNPAAAGEEKRRGPRYTPLSKRQDRPNAILWLVKFHPELSDGQIAKLVGTTKPTIQSIRERTHWNISNMQPIDPVALGLCRQSELDSVVQKAAAKKAAEGGVMSDDERRKLVSTEQSLGMDTGPRIPTAIEGLENFSLSEPISTSDDDEEDHRSIADADSFFNLPKGGTDDEDEDDDPRYLEHHHHHH | soluble
14 | MGSDKIHHHHHHKDTKWVDVPTGTPPEGSVTGKPGETEEPDDPDPTDKTFINCSYIRGDFFETNRISGASMGACNDLIYLTARPYADGDLTFDLPVNDATLTGAATYAASYNGRNGVLKLDGTGKMNAGDGLLHSPDGAFKKFTFGTYIYVSEWVDGACLFKKVDGGSVVIAFQLGATEGNLKLTVGSATATVTNSALKSGAWHYVAVTYDGGAAKLYIDTNNTATDFTGSLPASVPNTRADFVMGENLKGYLDETFVNSLLMGTLGRNPISFDNWNNTKTLAYWKYDDAAKPGKDSHTWAIRLEQIRTALNGQAGDRKIRLGIAGGEWLKMVGNATARTNFANNVKKVIEQYNLDGADLDFEWAYSGTDLSNYSKAIVQLREVLGKDVFLTVSLHPVSYKISAEAIAAVDFISLQCYGPSVELFSMERFKSDGKAAVDYGIPQDKLVMGVPFYGTTGTAGEQAAYFDLVGKGNLTNTSADTWSYEGKNYTLNSQNTIRQKTQYVCENGFGGIMSWDLATDVDVTHEMSLLKAVKEELDYYANPTVE | not soluble
15 | MQTSPLLTQLMEALRCLPGVGPKSAQRMAFTLLQRDRSGGMRLAQALTRAMSEIGHCADCRTFTEQDVCNICSNPRRQENGQICVVESPADIYAIEQTGQFSGRYFVLMGHLSPLDGIGPDDIGLDRLEQRLASEKISELILATNPTVEGEATANYIAELCAEAGVEASRIAHGVPVGGELEMVDGTTLSHSLAGRHKIIF | not soluble
16 | MSLIYPEITGKSGEHLRLKTLESVWIQGKLRMWGRWSYIGDGKTGNMFNQLLTSKKLTKTAINEALRRMKKAGLDKPELEAFLRDMINGNQKSWLAHCTDSEALIIDRVIGEVLAGYPGLLNVLSQRYVGRGMTKRKMAELLNDAHPEWSLRTCERRIEHWLKVAEFILYKPMVMAFGIEKKVIAFEGHHHHHH | soluble
17 | MGSDKIHHHHHHMIDLDFRKLTIEECLKLSEEEREKLPQLSLETIKRLDPHVKAFISVRENVSVEKKGKFWGIPVAIKDNILTLGMRTTCASRILENYESVFDATVVKKMKEAGFVVVGKANLDEFAMGSSTERSAFFPTRNPWDLERVPGGSSGGSAAAVSAGMVVAALGSDTGGSVRQPASLCGVVGYKPTYGLVSRYGLVAFASSLDQIGPITKTVRDAAILMEIISGRDENDATTVNRKVDFLSEIEEGVSGMKFAVPEEIYEHDIEEGVSERFEEALKLLERLGAKVERVKIPHIKYSVATYYVIAPAEASSNLARFDGVKYGLRIKEKGLREMYMKTRNVGFGEEVRRRIMIGTFTLSAAYYEAYFNKAMKVRRKISDELNEVLSQYDAILTPTSPVTAFKIGEIKDPLTYYLMDIFTIPANLAGLPAISVPFGFSNNLPVGVQVIGRRFADGKVFRIARAIEKNSPYNENGMFPLPEVKA | not soluble
18 | MSINNTQNNCRFCSEISQANGEDPIGTAIAVEQYLIIEAAQPWPIPIWIEPDPMPQGVIEALNFIWEGGGTVRQLAIAPDKEYSHPGYTRVIYYRRPAKFFAQFEKQEFIVPHALLGSLALALLKNPEELPNFNQYRQQTNHIREILVCNHGNVDAACSRFGYPIYQKLRSEYAAATNSNLRFWRCSHFGGHEFAPTLVDLPQGQYWGHLKPEILDLLVLRNGSVKELYPYYRGWGGLSFFEQIAEREIWMLEGWKWLEYHKAGQVLASDEINQEWADVRIDFTTVDGNISSAYQARVEVKGSVMTAWKSGANPTLEEVKQYRVRNLVKLAL | not soluble
19 | MGSDKIHHHHHHMDIKVITRHAPSNYGSLLQSIATITTLERLGHKCEIIDYIRDDEHGLSAVKTNLNNKQRWSGNSLKKLAYIVLRYPEEKKAELNFREMRRKYLKLTQLCRTHDDLKRLDADIFMTGSDQVWGPTLNGHYDEAYFLSFVKDKRKIAYAASLGRTDFTAKILSEYKKLLSSYSGIAVRENTAVGLLRQMDIECAGQVLDPTLLLTGDEWSRMIKKDMGGKYVLVYQLHNNPALSKYAVRFAEHVGLPLYRVSPTFHQIRRGGKFIYLPDLPDFLSYIKNSTYFITDSFHGTAFALNFNRQFIEILPNNKTGNRNQSILQLTRLQDRIVTDYADCSISERMIDYERVNDILRKERIRSLGILKQLLRQ | not soluble
20 | GMSLIPEIDAFLGCPTPDAWIEAALADQETLLIDHKNCEFKAASTALSLIAKYNTHLDLINMMSRLAREELVHHEQVLRLMKRRGVPLRPVSAGRYASGLRRLVRAHEPVKLVDTLVVGAFIEARSCERFAALVPHLDEELGRFYHGLLKSEARHYQGYLKLAHNYGDEADIARCVELVRAAEMELIQSPDQELRFHSGIPQALAA | soluble
21 | GPGSMTVRRMFCFLLPPPSHHRLSRSSLAHAHLPHIRMSAHFAQCRSTHVHTYTHTHVHTHDTLARAACRLCTSSPPVRAREMALLAPKALHKRVKGTNVEVRKEVTDDNTDAQLALLYSIHADDETELRWLHNTLRPERNLVHPSDAFLHGIKALHPAAVFNTFDVKKAKLRRLTKYEKDKETAMKRRKKEVAPTAAYKAAVNPHKTPRTGGAAPADEVRVLSRGMNKAQKARSRTRTAHKSGKVVNGAEAPKGFFTKWKKRKLEKIGRGL | soluble
